Measurements from patent US20220227861A1 (UNIVERSITY COLLEGE CARDIFF CONSULTANTS, published 2022).

Molecular target: T1, ZIP10 (SLC39A10) zinc transporter, endogenous in cells (human, UniProt Q9ULF5 26-831)
T1 construct: Endogenous ZIP10 of MCF-7 cells or of ZIP6-transfected cells
T1 sequence: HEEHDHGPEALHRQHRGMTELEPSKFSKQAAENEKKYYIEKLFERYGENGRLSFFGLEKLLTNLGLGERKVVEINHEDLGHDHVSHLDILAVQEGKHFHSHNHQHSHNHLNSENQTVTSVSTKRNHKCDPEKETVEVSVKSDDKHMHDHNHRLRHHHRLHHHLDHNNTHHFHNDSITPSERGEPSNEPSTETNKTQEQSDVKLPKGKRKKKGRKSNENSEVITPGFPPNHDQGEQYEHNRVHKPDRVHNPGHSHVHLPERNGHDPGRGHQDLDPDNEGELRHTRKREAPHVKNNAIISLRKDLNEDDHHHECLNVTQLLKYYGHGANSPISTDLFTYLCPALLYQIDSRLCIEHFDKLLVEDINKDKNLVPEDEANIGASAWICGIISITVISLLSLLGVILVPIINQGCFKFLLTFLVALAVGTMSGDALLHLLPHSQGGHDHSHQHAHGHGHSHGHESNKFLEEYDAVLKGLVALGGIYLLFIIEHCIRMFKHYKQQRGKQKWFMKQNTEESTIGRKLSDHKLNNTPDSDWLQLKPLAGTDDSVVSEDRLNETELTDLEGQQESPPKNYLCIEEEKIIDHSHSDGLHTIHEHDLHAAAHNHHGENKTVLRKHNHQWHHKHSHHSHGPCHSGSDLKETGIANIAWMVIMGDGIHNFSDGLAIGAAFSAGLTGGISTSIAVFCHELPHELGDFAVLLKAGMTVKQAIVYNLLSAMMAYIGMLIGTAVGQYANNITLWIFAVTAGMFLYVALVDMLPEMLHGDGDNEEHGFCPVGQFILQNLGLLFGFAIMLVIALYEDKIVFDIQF
Assay: immunoprecipitation with V5 antibody, Western blot for ZIP10
Method: FIG. 2. […] [A] FACS cell cycle analysis confirms the increase in the G2/M population in nocodazole-treated cells, compared to control. […] Statistical significance is determined by Student's t test. *** p<0.001. [B] Control PLA using either our ZIP6-Y or our ZIP10 antibodies alone in nocodazole-treated MCF-7 cells produces only a few dots in mitotic cells (arrow), compared to FIG. 3D. Scale bar, 20 μm. [C] […] [D] FACS cell cycle analysis confirms the increase in the G2/M population in the non-adherent cells collected using the mitotic shake-off technique, compared to the adherent cells from the same dishes. […] Statistical significance is determined by Student's t test. *** p<0.001. [E] PLA using ZIP6-SC and pY⁷⁰⁵STAT3 antibodies together as well as individual control ZIP6-SC and […] antibodies in nocodazole-treated MCF-7 cells produces only few dots, compared to FIG. 5F.
Cells were harvested, washed with PBS, lysed for 1 hour at 4° C. with lysis buffer pH7.6 (50 mM Tris, 150 mM NaCl, 5 mM EGTA and 1% Triton X-100) with protease inhibitor cocktail for mammalian cells (Signa-Aldrich) and phosphatase inhibitors (2 mM sodium orthovanadate and 50 mM sodium fluoride). Protein was measured using Bio-Rad/Bradford dye-binding protein microassay. Western Blot results of 40 μg/lane from three separate experiments were normalised to GAPDH values. […]

- binding result: binds
B1: recombinant ZIP6 wild-type with C-terminal V5 tag (other)
chain: FPQTTEKISPNWESGINVDLAISTRQYHLQQLFYRYGENNSLSVEGFRKLLQNIGIDKIKRIHIHHDHDHHSDHEHHSDHERHSDHEHHSEHEHHSDHDHHSHHNHAASGKNKRKALCPDHDSDSSGKDPRNSQGKGAHRPEHASGRRNVKDSVSASEVTSTVYNTVSEGTHFLETIETPRPGKLFPKDVSSSTPPSVTSKSRVSRLAGRKTNESVSEPRKGFMYSRNTNENPQECFNASKLLTSHGMGIQVPLNATEFNYLCPAIINQIDARSCLIHTSEKKAEIPPKTYSLQIAWVGGFIAISIISFLSLLGVILVPLMNRVFFKFLLSFLVALAVGTLSGDAFLHLLPHSHASHHHSHSHEEPAMEMKRGPLFSHLSSQNIEESAYFDSTWKGLTALGGLYFMFLVEHVLTLIKQFKDKKKKNQKKPENDDDVEIKKQLSKYESQLSTNEEKVDTDDRTEGYLRADSQEPSHFDSQQPAVLEEEEVMIAHAHPQEVYNEYVPRGCKNKCHSHFHDTLGQSDDLIHHHHDYHHILHHHHHQNHHPHSHSQRYSREELKDAGVATLAWMVIMGDGLHNFSDGLAIGAAFTEGLSSGLSTSVAVFCHELPHELGDFAVLLKAGMTVKQAVLYNALSAMLAYLGMATGIFIGHYAENVSMWIFALTAGLFMYVALVDMVPEMLHNDASDHGCSRWGYFFLQNAGMLLGFGIMLLISIFEHKIVFRINF
notes: Expressed by transfection and immunoprecipitated from cell lysate with V5 antibody; also called ZIP6 wild-type (WT); ZIP6/LIV-1/SLC39A6 in pcDNA3.1/V5-His-TOPO; not shown: C-terminal V5 tag from vector pcDNA3.1/V5-His-TOPO
